Biological target: ERK (extracellular-signal-regulated kinase; mitogen-activated protein kinase)
Experiment: cell-based or functional assay

B1: ERK decoy protein (ER localization signal, a c-Myc epitope tag, and the ERK polyligand of SEQ ID NO:1) (designed binder, part only; not given: ER signal and c-Myc tag, not shown: small tags and cut ends)
chain, part: MPKKKPTPIQLNPAAKGRKPRDLELPAAAATGPLAPGPFGAGAYSPTAPTYSPTAPKKKGGGGAPRAPGGRRAGAGRRPRAPAKLSFFFPS
- ERK activity in the endoplasmic reticulum (phosphorylation of myelin basic protein), Cos7 cells with M1-RasV12: 60%
- decrease in transformed foci formation, NIH3T3 cells transfected with H-RasV12: 50%
